Laboratory results published in patent publication US20110129485A1 (UNIVERSITY OF QUEENSLAND, published 2011).

Molecular target: T1, bovine serum albumin (BSA) (bovine, UniProt P02769 25-607)
T1 construct: Control protein for non-specific adsorption to the ASF-SPR chip
Assay: SPR, ASF-immobilised chip, BSA in solution
Procedure: The ASF-SPR chip was prepared starting with a 50 nm gold-coated SF10 glass substrate. The first SAM layer was self-assembled using a mixed ethanolic solution of 5×10⁻⁵ M cysteamine (NH₂ terminated thiol) (Sigma-Aldrich, Sydney, Australia) and 4.5×10⁻⁴ M mercaptoethanol (OH terminated thiol, as spacers) (Sigma-Aldrich, Sydney, Australia) for 15 h at room temperature. The second layer of biotin was introduced by coupling biotin-hexanoic acid (Sigma-Aldrich, Sydney, Australia) with cysteamine by activating 1 mg/ml biotin-hexanoic acid in PBS (prepared from a 6 mg/mL stock in dimethylformamide (DMF, Sigma-Aldrich, Sydney, Australia) with 4 mg/mL of 1-(3-dimethylaminopropy)-3-ethylcarbodiimide hydrochloride (EDC, Sigma-Aldrich, Sydney, Australia) and 0.7 mg/mL of N-hydroxysuccinimide (NHS, Sigma-Aldrich, Sydney, Australia). The third layer (of SA) was constructed by loading 45 μg/mL of SA (Invitrogen, Mount Waverley, Australia) into the flow cell, which specifically binds to biotin. This step took about 10 min to reach equilibrium. The SA layer was then activated by 4 mg/mL EDC and 0.7 mg/mL NHS for 5 min, enabling its carboxylic acid residue to react with the primary amino group of ASF (Sigma-Aldrich, Sydney, Australia). 1.0 mg/mL ASF was used in this step to prepare the fourth layer. […]

T1 sequence (P02769 25-607 limits assumed): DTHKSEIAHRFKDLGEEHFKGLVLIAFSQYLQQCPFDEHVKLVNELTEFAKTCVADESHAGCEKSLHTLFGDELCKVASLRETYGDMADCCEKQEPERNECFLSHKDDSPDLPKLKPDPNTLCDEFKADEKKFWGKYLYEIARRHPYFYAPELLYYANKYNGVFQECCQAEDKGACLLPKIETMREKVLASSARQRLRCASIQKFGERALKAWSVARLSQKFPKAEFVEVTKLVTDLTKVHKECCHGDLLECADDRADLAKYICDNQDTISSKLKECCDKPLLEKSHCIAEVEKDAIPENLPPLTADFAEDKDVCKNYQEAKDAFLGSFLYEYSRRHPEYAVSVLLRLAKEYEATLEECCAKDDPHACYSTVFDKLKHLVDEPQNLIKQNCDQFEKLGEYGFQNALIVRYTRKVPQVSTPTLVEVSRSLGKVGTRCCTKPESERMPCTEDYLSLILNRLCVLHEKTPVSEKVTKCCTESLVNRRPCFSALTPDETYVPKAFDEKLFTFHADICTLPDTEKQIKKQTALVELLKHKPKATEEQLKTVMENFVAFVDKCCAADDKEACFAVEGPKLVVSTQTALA

binding result: no binding (tested: 4.4 mg/mL)
B1: asialofetuin (ASF) (other, UniProt P12763 19-359, looked up)
chain: IPLDPVAGYKEPACDDPDTEQAALAAVDYINKHLPRGYKHTLNQIDSVKVWPRRPTGEVYDIEIDTLETTCHVLDPTPLANCSVRQQTQHAVEGDCDIHVLKQDGQFSVLFTKCDSSPDSAEDVRKLCPDCPLLAPLNDSRVVHAVEVALATFNAESNGSYLQLVEISRAQFVPLPVSVSVEFAVAATDCIAKEVVDPTKCNLLAEKQYGFCKGSVIQKALGGEDVRVTCTLFQTQPVIPQPQPDGAEAEAPSAVPDAAGPTPSAAGPPVASVVVGPSVVAVPLPLHRAHYDLRHTFSGVASVESSSGEAFHVGKTPIVGQPSIPGGPVRLCPGRIRYFKI
modifications: three triantennary N-link oligosaccharide chains with terminal N-acetyllactosamine (LacNAC) residues and three O-linked disaccharide chains (desialylated)
notes: Immobilised on a home-made SPR chip (thiol-SAM/biotin/streptavidin/ASF) by EDC/NHS coupling to streptavidin; also called asiolofetuin
